From US20110142842A1, “POLYPEPTIDES” (Medinnova AS, priority 2007, published 2011)

Molecular target: HLA-A*0201 (human), A*02:0
Experiment: REVEAL MHC binding assay (ProImmune)

Q: How did the % Pass/fail control (% of pass/fail control) turn out when FLYGVILTV (modifications not checked) [Peptide ID 131 … (TCR_TV, modified peptide)] was run?
A: Its % Pass/fail control (% of pass/fail control) is 257.
